In PMC10397247 one finds interaction score data, which are given here for three molecules.

Assay in all cases: two-hybrid library CCNG1;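 also: natural log of median RNA to DNA barcode read ratio; higher means stronger binding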
The target in one assay is T1, O13-bS.
T1 chain: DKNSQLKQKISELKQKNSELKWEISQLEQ

In a further assay the target is T2, O15-bS.
T2 chain: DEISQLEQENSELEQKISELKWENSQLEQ

The target of a further assay is T3, O2-bS.
T3 chain: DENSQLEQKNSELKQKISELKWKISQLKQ

For another assay, the target named is T4, O7-bS.
T4 chain: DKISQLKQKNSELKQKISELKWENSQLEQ

The next assay concerns the target T5, O5-bS.
T5 chain: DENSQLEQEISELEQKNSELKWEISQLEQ

A further assay concerns the target T6, O11-bS.
T6 chain: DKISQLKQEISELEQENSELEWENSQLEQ

A further assay deals with T7, O9-bS.
T7 chain: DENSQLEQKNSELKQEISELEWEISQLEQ

Another assay addresses T8, O3-bS.
T8 chain: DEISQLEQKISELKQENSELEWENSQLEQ

Another assay has as its target T9, O12-bS.
T9 chain: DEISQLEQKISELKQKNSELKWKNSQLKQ

The target in a further assay is T10, O6-bS.
T10 chain: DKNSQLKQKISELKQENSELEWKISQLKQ

For the next assay, the target named is T11, O4-bS.
T11 chain: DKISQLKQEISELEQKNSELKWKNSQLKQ

Another assay has as its target T12, O16-bS.
T12 chain: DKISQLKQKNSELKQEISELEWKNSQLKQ

For the next assay, the target named is T13, O10-bS.
T13 chain: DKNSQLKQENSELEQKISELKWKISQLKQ
As to conditions: mean of both orientations.

A further assay concerns the target T14, O8-bS.
T14 chain: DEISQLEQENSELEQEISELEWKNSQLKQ

In another assay the target is T15, O14-bS.
T15 chain: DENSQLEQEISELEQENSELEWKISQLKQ

In another assay the target is T16, 4H3057-bN.
T16 chain: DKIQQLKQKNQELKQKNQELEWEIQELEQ

The next assay has as its target T17, 4H2223-bN.
T17 chain: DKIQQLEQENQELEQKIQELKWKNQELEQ

Another assay deals with T18, 4H319-bN.
T18 chain: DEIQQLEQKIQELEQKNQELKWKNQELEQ

The target in the next assay is T19, 4H2438-bN.
T19 chain: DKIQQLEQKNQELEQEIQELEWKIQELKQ

A further assay concerns the target T20, 4H348-bN.
T20 chain: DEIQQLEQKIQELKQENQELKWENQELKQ

In another assay the target is T21, 4H2915-bN.
T21 chain: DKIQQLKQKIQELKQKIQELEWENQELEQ

The next assay addresses T22, 4H2503-bN.
T22 chain: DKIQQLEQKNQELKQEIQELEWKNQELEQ

The target of another assay is T23, 4H477-bN.
T23 chain: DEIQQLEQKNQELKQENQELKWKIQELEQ

Another assay deals with T24, 4H2839-bN.
T24 chain: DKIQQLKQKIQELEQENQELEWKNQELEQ

The target in a further assay is T25, 4H2588-bN.
T25 chain: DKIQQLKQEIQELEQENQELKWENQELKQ

In the next assay the target is T26, 4H2473-bN.
T26 chain: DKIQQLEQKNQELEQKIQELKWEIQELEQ

The target of another assay is T27, 4H2134-bN.
T27 chain: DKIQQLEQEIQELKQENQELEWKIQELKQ

Another assay deals with T28, 4H741-bN.
T28 chain: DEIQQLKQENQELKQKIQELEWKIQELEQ

In a further assay the target is T29, 4H40-bN.
T29 chain: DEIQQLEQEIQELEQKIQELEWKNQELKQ

Another assay has as its target T30, 4H2692-bN.
T30 chain: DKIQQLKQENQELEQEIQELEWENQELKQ

The next assay deals with T31, 4H3277-bN.
T31 chain: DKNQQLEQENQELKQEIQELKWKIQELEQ

For a further assay, the target named is T32, 4H2143-bN.
T32 chain: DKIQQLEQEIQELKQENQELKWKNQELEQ
As to conditions: mean of both orientations.

The next assay concerns the target T33, 4H492-bN.
T33 chain: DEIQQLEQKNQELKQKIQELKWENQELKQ

The target in another assay is T34, 4H2717-bN.
T34 chain: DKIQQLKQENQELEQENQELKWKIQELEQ

Read-outs that look alike come from different tables or passages of the source.

On to DKNSQLKQENSELEQKISELKWKISQLKQ [O10-bS], for which the interaction score in the assay with O13-bS is -0.797; with O15-bS it was 0.0876; in the assay with O2-bS it was -1.55; in the assay with O7-bS, -0.783; with O5-bS, -1.67; with O11-bS, -2. Besides, the interaction score was 0.492 with O9-bS (mean of both orientations); -0.954 in the assay with O3-bS; -2.63 in the assay with O12-bS; -0.631 with O6-bS; -0.565 with O4-bS; -0.405 with O16-bS. In addition, the interaction score in the assay with O10-bS is -1.52; with O8-bS, -1.24.

Regarding DKISQLKQEISELEQENSELEWENSQLEQ [O11-bS], the interaction score was -0.61 in the assay with O13-bS; -0.753 with O15-bS; -0.471 in the assay with O2-bS; -1.17 with O7-bS; -2.35 in the assay with O5-bS; -1.25 in the assay with O11-bS. Besides, the interaction score with O14-bS was -2.92; with O9-bS, -2.56; with O3-bS it was -1.25; in the assay with O12-bS, 1.88; with O6-bS, -0.902; with O4-bS, 0.272. Also, the interaction score was -0.701 with O16-bS and -3.31 with O8-bS.

For the molecule DKIQQLEQEIQELKQENQELEWKIQELKQ [4H2134-bN], the interaction score with 4H3057-bN is 0.93; with 4H2223-bN, -0.162; with 4H319-bN, 0.833; with 4H2438-bN, 0.477; in the assay with 4H348-bN, -0.138; in the assay with 4H2915-bN, -1.35. Also, the interaction score with 4H2503-bN is -0.659; with 4H477-bN, 0.581; with 4H2839-bN it was 0.142; in the assay with 4H2588-bN, -0.119; with 4H2473-bN, 0.214; with 4H2134-bN, 1.45. The interaction score is 0.14 in the assay with 4H741-bN; -0.166 in the assay with 4H40-bN; 0.473 in the assay with 4H2692-bN; -0.911 with 4H3277-bN; 0.912 with 4H2143-bN; -1.68 in the assay with 4H492-bN. Further, in the assay with 4H2717-bN, the interaction score is -0.26.
